From the supplement of paper PMC9170038

Tested on: K4 kissing-loop RNA reporter
Test: apparent KD of K4 kissing-loop reporter; higher = weaker reporter binding
Settings: Eterna round: R107
Description: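 RNA-MaP round R107: designed RNA switches with theophylline, tryptophan, arginine or FMN aptamers are transcribed on-chip within common flanks. They are titrated with a labelled K4 kissing-loop RNA reporter in RNA-MaP buffer (100 mM Tris pH 7.5, 80 mM KCl, 4 mM MgCl2), without ligand or with the indicated ligand. Median apparent KD per design.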

[1] = input ligand: theophylline 20 uM
[2] = input ligand: tryptophan 2.4 mM
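Further: bound reporter read as fluorescence of individual clusters on recovered sequencing chips by microscopy, with normalized cluster intensities fitted with a binding model.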

Sequence	apparent KD of K4 kissing-loop reporter (input ligand: FMN 200 uM)	apparent KD of K4 kissing-loop reporter (input ligand: arginine 13.2 mM)	apparent KD of K4 kissing-loop reporter (input ligand: none)	apparent KD of K4 kissing-loop reporter [1]	apparent KD of K4 kissing-loop reporter [2]
GCGUCUUGGUCGGCCGCCACUGAGCCUAGUCACACUCUUGAGUGAUGUUGAAGAUGGUGGACUUGCAGGACCGGGACCACGGACG [theeternabot_sameState_KL_Trp_B_41]	0.946 µM	0.612 µM	0.59 µM	0.569 µM	0.45 µM
UUCAGACUACUACUAGACAGUAGUAUAUACUAGGAUAUCCAGAUAUGGAGAAGGAGUGAUGUUCCCUAGUAGUAGUGAAUUAAAU [KL-XFMN-A5]	0.661 µM	0.38 µM	0.387 µM	0.375 µM	0.335 µM
GCCAGUGAUGUUGGCGAACCGACGCAUGCAGAGGAUAUUCGAUCUUGAAGAAGGCUGCAGCGUCAUCAUACGCAGUGAUGUUGCG [Same State FMN A GF 27]	0.172 µM	0.156 µM	0.182 µM	0.161 µM	0.139 µM
ACAGGAUCGAAGAUCCUGAGCAGUCAGGUCCGAGGACCGGUACGGCCGCCACUCGGAGUGAUGUUCCGAAGACUGCAAAAUAAAA [#SwitchBubble 4]	0.853 µM	0.455 µM	1.11 µM	0.968 µM	0.338 µM
ACUACGAAGACGGCCGCCACUGAUAUUCGUAGAUCCAUCAUUACAUGAGUGAUGUUCAUGUAUAUCAGGACCGGGUCAAGAUGGU [KL-XTryp-B17 #analogue]	0.184 µM	0.146 µM	0.164 µM	0.162 µM	0.226 µM
CGCAGUGAUGUUGCUAUUAUUCUUGAUUAACGAGGACCGGUACGGCCGCCACUCGAUUUCUAUCUAAUUUAGUGUUAUGUUGAUU [JR_ExcTryptoA_Sub007]	0.351 µM	0.423 µM	0.397 µM	0.447 µM	0.256 µM
GGCGGCCGCGCGUAAGCGCGGCCGGCCGAUACCAGCGCGACGGCGCGCCCUUGGCAGCGGCGCCGAGUGAUGUUCGGCCUGCCGG [#2 Same State - Theophylline A Attempt #17 (HarryS)]	0.376 µM	0.381 µM	0.441 µM	0.465 µM	0.596 µM
UAUUGAUUGUCAGGAUAUCGUAAACGAGUGAUGUUCGUAUAUUGACGAUAGUCAAUUCUAUCUGAACGAGAAGGGACAUUAUUUA [JR_SSFMNB_Sub009]	0.318 µM	0.301 µM	0.389 µM	0.351 µM	0.308 µM
AGGCACGAGCAAGGAUAUUGAGUAGAGUGAUGUUCUGCCUAAGUUGGCUCGUAAGAGCCUUCUUAGCGAGAAGGUGCUCGUGCCU [#2 Same State - FMN A Attempt #27 (HarryS)]	0.297 µM	0.513 µM	0.825 µM	0.611 µM	0.665 µM
GGACAAGUUUCCGAUACCAGCCUUUAUGCUGGACUAGCUUGAUCAGUGGCUAGUGAUGUUGGCCCUUGGCAGCGGGACUCUUCGG [theeternabot_exclusion_KL_Theo_B_10]	0.221 µM	0.204 µM	0.217 µM	0.238 µM	0.218 µM
UGGACUAGUGUGAGUGAUGUUCACUUCGAUACCAGCAGAGCGAUCUGCCCUUGGCAGCGAGUUAACUGCCGAAAGGCAAGGUCCA [Theo B SS t9a]	0.457 µM	0.478 µM	0.477 µM	0.457 µM	0.382 µM
UUUUUCGCGUUUGAUACCAGCAGAGUUGUUCGUGUCUGGAACAUGAGUGAUGUUCAUGUCUGCCCUUGGCAGCAAACGGGAGAAG [KL-XTheo-B13]	0.127 µM	0.112 µM	0.103 µM	0.0878 µM	0.124 µM
GGUGACAGCCAGGAGUGAUGUAUAGAAUAGCGAGGACCGGUACGGCCGCCACUCGUGAAGAGAAGGGAGUGAUGUUCCGUAAUGG [Kazoo C]	0.627 µM	0.185 µM	0.17 µM	0.386 µM	0.14 µM
UGUCGUUCUAGUGAUGUUAGGACAGUUAUGAAGGAUAUACACACUCGUAGAAGGUCAGCUGCGGAAUGGCGAUUACGGUGAUUCG [theeternabot_sameState_KL_FMN_A_39]	0.157 µM	0.107 µM	0.128 µM	0.132 µM	0.136 µM
UGUACCGAGUCAGGAUAUCAUAAUAAUGCAGUGAUGUUGCAAUAACGACUGACAAAGUCGGUCGAUUGAGAAGGGACUUGGUACU [FmnBS 6 #SwitchBubble #StaticStem]	0.127 µM	0.118 µM	0.129 µM	0.11 µM	0.126 µM
CGAUUCAUGGCGGCCGCCACUCGCGAAGCUCCCGUUACGAUGUCCGCAACAGUGAUGUUGUUGCCGAGGACCGGGCCGAGAUCCA [theeternabot_exclusion_KL_Trp_B_31]	0.283 µM	0.173 µM	0.228 µM	0.211 µM	0.218 µM
GCAGUGAUGUUGCGCGGGUACGGUGGAGUGCGAGGACCGGUACGGCCGCCACUCGUACGGAACUGGCUAAUAUAUGGAUAGGUGA [VI]	0.397 µM	0.291 µM	0.383 µM	0.379 µM	0.336 µM
UCUUUACCGGGAAGGAGCGUGAAUGAGAAUGGAUAUAGUGAUGUUAUGUAUACGAACGAAUCGCAGGUAGGUCGCCCGGAUCCCU [SSArgB.aB]	1.15 µM	0.316 µM	0.643 µM	0.685 µM	0.485 µM
UCCUGUUGUCAGCCACGAAAGUGGAUUGAUACCAGAGUCGAAAGACUCCCUUGGCAGCGAGUGAUGUUCGCAGCAGGUAAAUAAA [MatMod 4 - Jieux - Exclusion - Theophylline A]	0.211 µM	0.157 µM	0.209 µM	0.207 µM	0.178 µM
AGCUCAGAGUGACUCGAUAAGAGUCACAAACGAGGACCGGUACGGCCGCCACUCGAAACAAAGAGAGUGAUGUUCUCGCUGAGCA [FiskerMod 10 - Jieux - Same State Tryptophan A]	0.319 µM	0.121 µM	0.176 µM	0.207 µM	0.713 µM
AGGAUCCGUCGACAAAAGUCGACAUAAACCAAGGAUAUGACGAAAGUCAGAAGGUGGUCAUAAGACCAGUGAUGUUGGUGGAUCC [FmnA 11 #SwitchBubble #K4Late]	0.984 µM	0.268 µM	0.467 µM	0.309 µM	0.379 µM

Sequence	apparent KD of K4 kissing-loop reporter (input ligand: FMN 200 uM)	apparent KD of K4 kissing-loop reporter (input ligand: arginine 13.2 mM)	apparent KD of K4 kissing-loop reporter (input ligand: none)	apparent KD of K4 kissing-loop reporter [1]	apparent KD of K4 kissing-loop reporter [2]
CCUAUCUCAUACGAUACCAGUCAAUGAGAUUUUAUCAAUGCCAUCACCGAGUGAUGUUCGGACCCUUGGCAGCGUAUGGGAUAGG [#02 K4 Theophylline B Exclusion]	0.236 µM	0.185 µM	0.217 µM	0.298 µM	0.221 µM
UGGAUAUAGUGAUGUUAUAUAGAGAGUGAUACCAGUUUAGAGAAGAACCCUUGGCAGCAUAGAGAAGUAUCAUUAGAGAAGAAUG [ExTheophyl.Ap]	0.22 µM	0.208 µM	0.233 µM	0.24 µM	0.18 µM
AUAGGAGUGAUGUUCCUUAGUUUCUCCGAUACCAGUAUGGAAACAUACCCUUGGCAGCGGGAAACCGCAGAUUAGGAAACUAGUC [Theophylline A K4 6]	0.208 µM	0.2 µM	0.21 µM	0.21 µM	0.194 µM
GGUUUAUAGGAGGAUACCAGUACGGAUAAAGUACGUUAAUAGUAGAGUGAUGUUCUAAAGUACCCUUGGCAGCUUAGAGUGAGUU [ExTheophylB.L]	0.105 µM	0.157 µM	0.122 µM	0.159 µM	0.0788 µM
GUUACGCAUGGAAGGAGCGCACUCCGGUUGAUCAACACAGUGAUGUUGUGGUUCAUUCGAAUGCAGGUAGGUCGCCAUGUGUAAC [Ex Arginine B K4 16]	0.877 µM	0.724 µM	1.1 µM	0.858 µM	0.825 µM
AGAUUCGACACGGCCGCCACUUGUGGUGGAUUAUCCUAUGUCGAACAUGAGUGAUGUUCAUGUACAAGGACCGGGUGUUGAGUCU [KL-XTryp-B6 #analogue]	0.476 µM	0.373 µM	0.421 µM	0.438 µM	0.492 µM
ACAGGAUCGAAAGAUCCUGAGCAGUCAAAACGAGGACCGGUACGGCCGCCACUCGAAUAAGAGAGUGAUGUUCUCGACUGCAAAA [Omei inspired 10 - Reversed #K4Late]	0.939 µM	0.826 µM	1.21 µM	1.05 µM	0.223 µM
UGUCAUUGGUCUGAUACCAGCUGAUCGGAAACGAUCUUGCUGGAGUGAUGUUCCAAGUAAAGCCCUUGGCAGCAGACCGAUGACU [TheoBS 9 #SwitchBubble #StaticStem]	0.183 µM	0.0538 µM	0.0706 µM	0.107 µM	0.144 µM
UAAGUGAUUCACAAGCUAGAGUUACUCGAAGGAGCGACGAAUUCGUCAGGUAGGUCGCGAGUGAUGUUCGCAUGCUCUAGCAAAU [AK1 Exc Arginine A]	0.655 µM	0.681 µM	0.704 µM	0.689 µM	0.65 µM
UCGGACCCUGGAGGAUAUGAGUCGAGUGAUGUUCGGCGGUCCAUGCCGGUGCGGCGUUAUGCCCUUUUAGAAGGCCAGGGUCCGA [#2 Exclusion - FMN B Attempt #11 (HarryS)]	0.277 µM	0.159 µM	0.196 µM	0.207 µM	0.212 µM
AAACAUCACUGGGAGUGAUGUUCUCAGUGACGAGGACCGGUACGGCCGCCACUCGCGAGAGAUAUAGGUAAGUAAUGACAUCAUU [Excl Tryptophan A V5]	0.34 µM	0.282 µM	0.36 µM	0.327 µM	0.392 µM
GCUCAGGAGUGAUGUUCCAAGUGAUGUUAACGAGGACCGGUACGGCCGCCACUCGAUACGGCCGGACCGUAAGAUAAACUAGAGC [Same State - Tryptophan A (Freestyle 8)]	0.196 µM	0.216 µM	0.188 µM	0.38 µM	0.199 µM
AGGACUCUUGUGGGUACGCAUCUAGCCGAUACCAGACUUCCAUAUGUCCCUUGGCAGCGGCAGUGAUGUUGUCGUUACGCCAUCA [theeternabot_exclusion_KL_Theo_A_34]	0.14 µM	0.133 µM	0.147 µM	0.212 µM	0.131 µM
AGCGAUGUUUUCUCUAAGAGUGAUGUUUUUCGAGGACCGGUACGGCCGCCACUCGAAUAAAGUGUGUGGUAGUGAGCUGUUGACA [#17 K4 Tryptophan A Exclusion]	1.15 µM	0.606 µM	1.11 µM	0.648 µM	0.804 µM
GUGAAGGAGCUGCAGUGAUGUUGCAGAGACUAGGAUAUCAGGAAACUGAGAAGGAGUCAACUCCUUCACCUAGACACUGCAGAAA [[F]''-[K1]-[K2]-[F1]-[F2]-[F2]'-[F1]'-[K]'_Design1]	0.11 µM	0.108 µM	0.128 µM	0.17 µM	0.143 µM
AAGCAGUCACGCGAAGCCAUCGAAGAUGGUCGAGGACCGGUACGGCCGCCACUCGGAGUGAUGUUCCGAAGACUGCAAAAUAAAA	0.326 µM	0.27 µM	0.333 µM	0.314 µM	0.341 µM
AUGCGCGCGGCGGCCGCCACUCGCAUGAGAGUGAUGUUCUCGCCGUGCCCGUAAGGGCGCGGUGUGAGGACCGGGCCGGGCUGCG [#2 Same State - Tryptophan B Attempt #21 (HarryS)]	0.0708 µM	0.0663 µM	0.4 µM	0.319 µM	0.131 µM
GGGAGUAGUGCGGCCGCCACUGAGAAAGAAGAAGAUUGUAGUGAUGUUAUGGAGGAAAGGAAGAACAGGACCGGGCAUUAGAUUU [SSTRyptB.I]	1.08 µM	0.735 µM	0.231 µM	0.651 µM	0.684 µM
GGUGACAACCAGAGGUGAUGUAUAGAAUAGCGAGGACCGGUACGGCCGCCACUCGUGAAGAGAAAGGAGUGAUGUUCCGUAAUGG [Kazoo C5]	0.33 µM	0.298 µM	0.453 µM	0.485 µM	0.166 µM
UGUCAUUGGUCGGCCGCCACUAGAAGGUCAAAGACCAAAGAGUGAUGUUCUUAGACGAAAGUCACUAGGACCGGGACCGAUGACU [TrypBS 7 #SwitchBubble #K4Middle]	0.931 µM	0.641 µM	0.971 µM	0.747 µM	0.2 µM
